Experimental data as given in US20240150474A1 (Regeneron, published 2024).
Where a chain is given by its changes, count along the chain named.

T1: mouse ACVR1 extracellular domain expressed with a C-terminal mouse IgG2a Fc tag (mouse, UniProt P37172 21-123)
T1 construct: extracellular domain; Bought from R&D Systems; also called mACVR1-mFc; R&D System 6506-RA-100; not shown: mouse IgG2a Fc tag
T1 sequence (looked up): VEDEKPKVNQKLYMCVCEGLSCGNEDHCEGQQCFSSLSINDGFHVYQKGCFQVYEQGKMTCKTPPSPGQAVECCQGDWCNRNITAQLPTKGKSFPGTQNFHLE

T2: human ACVR1 extracellular domain expressed with a C-terminal mouse IgG2a Fc tag (human)
T2 construct: also called hACVR1-mFc; REGN3112
T2 chain: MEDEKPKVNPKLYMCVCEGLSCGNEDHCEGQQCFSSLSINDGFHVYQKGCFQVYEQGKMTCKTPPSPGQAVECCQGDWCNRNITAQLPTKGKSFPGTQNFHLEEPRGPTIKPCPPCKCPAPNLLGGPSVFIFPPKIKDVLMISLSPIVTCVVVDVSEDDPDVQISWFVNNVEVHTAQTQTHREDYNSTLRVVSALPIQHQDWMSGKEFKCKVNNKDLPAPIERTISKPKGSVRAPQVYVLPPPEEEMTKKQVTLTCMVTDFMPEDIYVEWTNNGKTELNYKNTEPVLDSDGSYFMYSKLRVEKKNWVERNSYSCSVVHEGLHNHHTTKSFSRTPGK

T3: dimeric mouse BMPR1B (mouse, UniProt P36898 14-126, limits assumed)
T3 construct: Construct and dimerising part not described; also called Mouse Receptor BMPR1B
T3 sequence (looked up): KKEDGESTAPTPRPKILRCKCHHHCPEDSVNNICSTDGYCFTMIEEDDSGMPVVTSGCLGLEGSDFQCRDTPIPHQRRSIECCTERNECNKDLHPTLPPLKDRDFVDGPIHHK

T4: dimeric human ACVR1 (human, UniProt Q04771 21-123, limits assumed)
T4 construct: ACVR1'; also called Human Receptor ACVR1
T4 sequence (looked up): T1 sequence (looked up) with V1M, Q10P

T5: dimeric mouse ACVR1 (mouse, UniProt P37172 21-123, limits assumed)
T5 construct: also called Mouse Receptor ACVR1
T5 sequence (looked up): T1 sequence (looked up)

B1: REGN 5166 (antibody, human IgG4 S228P, kappa, V domains shown)
VH: QVQLVESGGGVVQPGRSLRLSCAASGFTFSAYWMHWVRQAPGKGLEWVAVISYDGSNKYYADSVKGRFTISRDHSKNTLYLQMNSLRAEDTAVYYCAKGDAYDSWRILLGGDYYGMDVWGQGTTVTVSS
VL: EIVLTQSPGTLSLSPGERATLSCRASQSVSSSYLAWYQQKPGQAPRPLIYGASSRATGIPDRFSGSGSGTDFTLTISRLEPEDFAVYYCQQGGDAPPYTFGGGTKVEIKR
notes: also called REGN 5166-L1
B2: REGN 5168 (antibody, human IgG4 S228P, kappa, V domains shown)
VH: QVQLVQSGAEVKEPGASVKVSCKASGYTFAEYYMHWVRQAPGQGLEWMGAINPSGSHTSYAQKFQGRVTMTRDTSTSTVYMELSSLRSEDTAVYYCARSISGKRGGDYYGMDVWGQGTTVTVSS
VL: DIQMTQSPSTLSASVGDRVTITCRASQSISSWLAWYQQKPGKAPKLLIYKASSLESGVPSRFSGSGSGTEFTLTISSLQPDDFATYYCQQYSIFPFTFGGGTKVEIKR
notes: also called REGN 5168-L1
B3: REGN 5167 (antibody, human IgG4 S228P, kappa, V domains shown)
VH: QLQLQESGPGLVKPSETLSLTCTVSGGSITSSSYYWAWIRQPPGKGLEWIGKIYYSGSTHYNPSLKSRVTISVDTSKNQFSLKLSSVTAADTAVYYCARVGGHGYGDSAGLAFDIWGQGTMVTVSS
VL: EIVLTQSPGTLSLSPGERATLSCRASQSVSSAFLAWYQQKPGQAPRLLIYGASYRHTGIPDRFSGSGSGTDFTLTISRLEPEDFAVYYCQHYGVGPRTFGGGTKVEIKR
notes: also called REGN 5167-L1

Each binder was assayed against T1, mouse ACVR1 extracellular domain … (assay: SPR Biacore T200, mAb captured by anti-human Fc, mACVR1-mFc injected, 37C).
Method: (§1) Equilibrium dissociation constants (KD) for ACVR1 binding to purified anti-ACVR1 monoclonal antibodies were determined using a real-time surface plasmon resonance (SPR) based Biacore T200 biosensor. All binding studies were performed in 10 mM HEPES, 150 mM NaCl, 3 mM EDTA, and 0.05% v/v surfactant Tween-20, pH 7.4 (HBS-EP) running buffer at […]. The Biacore CM5 sensor surface was first derivatized by amine coupling with a monoclonal mouse anti-human Fc antibody (REGN2567) to capture anti-ACVR1 monoclonal antibodies. Different concentrations of ACVR1 reagents, human ACVR1 extracellular domain expressed with a C-terminal myc-myc-hexahistidine tag (hACVR1-mmh; REGN3111, SEQ ID NO: 63), mouse ACVR1 extracellular domain expressed with a C-terminal myc-myc-hexahistidine tag (mACVR1-mmh; REGN3407, SEQ ID NO: 65), human ACVR1 extracellular domain expressed with a C-terminal mouse IgG2a Fc tag (hACVR1-mFc; REGN3112, SEQ ID NO: 64); and mouse ACVR1 extracellular domain expressed with a C-terminal mouse IgG2a Fc tag (mACVR1-mFc, R&D system), at concentrations ranging from 0.41 nM to 100 nM in a series of 3-fold dilutions prepared in HBS-EP running buffer were injected at a flow rate of 50 μL/min for 1.5 minutes. The dissociation of different ACVR1 reagents bound to anti-ACVR1 monoclonal antibodies was monitored for 20 minutes in HBS-EP running buffer. At the end of each cycle, the anti-ACVR1 monoclonal antibodies capture surface was regenerated using a 12 sec injection of 20 mM H3PO4. The association rate (ka) and dissociation rate (kd) were determined by fitting the real-time binding sensorgrams to a 1:1 binding model with mass transport limitation using Scrubber 2.0c curve-fitting software. Binding dissociation equilibrium constant (KD) and dissociative half-life (t½) were calculated from the kinetic rates as: […]
(§2) Binding kinetics parameters for different ACVR1 reagents to anti-ACVR1 monoclonal antibodies of the invention at 37° C. are shown in Table 5 through Table 8.

Row | 100 nM Ag Bound (RU) | Kd [nM] | koff [s⁻¹] | kon [M⁻¹ s⁻¹] | t½ [min] | Binder
1 | 134 | 0.0179 | 3.63e-05 | 2.03e+06 | 318 | B1
2 | 135 | 0.0362 | 0.000111 | 3.06e+06 | 104 | B2
3 | 135 | 0.0192 | 3.63e-05 | 1.89e+06 | 318 | B3

Target: T2, human ACVR1 extracellular domain …
Experiment: SPR Biacore T200, mAb captured by anti-human Fc, hACVR1-mFc injected, 37C
Method: as §1, §2

Row | 100 nM Ag Bound (RU) | Kd [nM] | koff [s⁻¹] | kon [M⁻¹ s⁻¹] | t½ [min] | Binder
4 | 142 | 0.0478 | 5.65e-05 | 1.18e+06 | 204 | B1
5 | 145 | 0.191 | 0.000357 | 1.87e+06 | 32 | B2
6 | 141 | 0.0481 | 5.36e-05 | 1.11e+06 | 215 | B3

The binders below were run against T6, dimeric human BMPR1A (human, UniProt P36894 24-152, limits assumed) (assay: SPR Biacore T200, mAb captured by anti-human Fab, 100 nM dimeric receptor injected, 25C).
T6 construct: Construct and dimerising part not described; also called Human Receptor BMPR1A
T6 sequence (P36894 24-152 limits assumed): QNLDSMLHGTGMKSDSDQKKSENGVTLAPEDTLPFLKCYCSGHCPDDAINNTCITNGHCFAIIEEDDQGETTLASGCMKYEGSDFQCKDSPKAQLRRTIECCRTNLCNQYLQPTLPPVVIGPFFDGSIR
Method: (§3) ACVR1 mAbs were tested for cross-reactivity to a panel of bone morphogenic protein type 1 receptors including human and mouse ACVR1, BMPR1A, and BMPR1B, as well as ACVRL1 on a Biacore T200 as follows. In order to measure the specificity of ACVR1 mAbs, ACVR1 mAbs were captured with anti-human Fab immobilized on a CM5 chip. 100 nM or 10 nM of dimeric human or mouse ACVR1, ACVRL1, BMPR1A or BMPR1B were injected at 30 μL/min for 2 min (duplicate injections) and the experiment was performed at 25° C. Binding of different receptors to the captured mAb was determined using Scrubber 2.0c software.

Row | 100 nM Human Receptor Binding [RU] | Binder
7 | 2 | B1
8 | 2 | B2
9 | 2 | B3

What follows are binders tested against T3, dimeric mouse BMPR1B in the same assay as above.
Method: as §3

Row | 100 nM Mouse Receptor Binding [RU] | Binder
10 | 1 | B1
11 | 1 | B2
12 | 1 | B3

These binders were tested against T7, dimeric mouse BMPR1A (mouse, UniProt P36895 24-152, limits assumed) in the same assay as above.
T7 construct: Construct and dimerising part not described; also called Mouse Receptor BMPR1A
T7 sequence (P36895 24-152 limits assumed): as the sequence (P36894 24-152 limits assumed) above, with S16L, S21P, A74T counted along it
Method: as §3

Row | 100 nM Mouse Receptor Binding [RU] | Binder
13 | 9 | B1
14 | 8 | B2
15 | 3 | B3

Each binder was assayed against T4, dimeric human ACVR1 in the same assay as above.
Method: as §3

Row | 100 nM Human Receptor Binding [RU] | Binder
16 | 147 | B1
17 | 147 | B2
18 | 130 | B3

Each binder was assayed against T5, dimeric mouse ACVR1 in the same assay as above.
Method: as §3

Row | 100 nM Mouse Receptor Binding [RU] | Binder
19 | 141 | B1
20 | 140 | B2
21 | 130 | B3
